Source: PMC3605776

Assays:
KSRP KH3 [1] = biological target: T1, KSRP KH3 (Homo sapiens, UniProt Q92945 322-386); assay: NMR structure, NMR titration, ITC
T1 sequence: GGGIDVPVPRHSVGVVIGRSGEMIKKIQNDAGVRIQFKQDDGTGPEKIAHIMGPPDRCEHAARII

[2] = biological target: T2, KSRP KH1-KH4 (referred to as KSRP) (Homo sapiens, UniProt Q92945 68-525); assay: NMR 13C-1H
T2 sequence: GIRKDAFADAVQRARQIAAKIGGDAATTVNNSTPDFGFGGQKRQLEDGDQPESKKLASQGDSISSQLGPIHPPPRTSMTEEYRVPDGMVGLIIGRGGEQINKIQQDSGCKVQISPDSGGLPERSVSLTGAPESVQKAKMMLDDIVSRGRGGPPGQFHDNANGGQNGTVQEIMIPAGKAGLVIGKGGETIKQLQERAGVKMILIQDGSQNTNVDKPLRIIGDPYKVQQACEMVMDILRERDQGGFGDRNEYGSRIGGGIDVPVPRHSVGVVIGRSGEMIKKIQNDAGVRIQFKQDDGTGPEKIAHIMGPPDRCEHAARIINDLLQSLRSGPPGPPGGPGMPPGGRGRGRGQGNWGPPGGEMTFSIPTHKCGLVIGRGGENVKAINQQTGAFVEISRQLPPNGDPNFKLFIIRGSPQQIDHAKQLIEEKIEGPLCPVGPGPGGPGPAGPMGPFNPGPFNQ

KSRP KH3 [3] = biological target: T1, KSRP KH3; assay: NMR titration

| Binder | binding result (KSRP KH3 [1]) | binding result [2] | binding result (KSRP KH3 [3]) |
| --- | --- | --- | --- |
| AGGGU (ssRNA) | binds | binds |  |
| AGUGU (ssRNA) [AGGGU G3U] |  |  | binds |
| AGAGU (ssRNA) [AGGGU G3A] |  |  | binds |
